Results as given in the supplement of paper PMC9112550, “Optimization of the antimicrobial peptide Bac7 by deep mutational scanning” (BMC Biology, 2022).

Test system: Escherichia coli TOP10
Assay: shrunken log2 fold change of peptide-encoding DNA abundance (4.5 h post-induction vs induction); higher = less antimicrobial activity (less host growth inhibition)
Conditions: time post-induction: 4.5 h; library: site-saturation at positions 5, 18, 19, 20
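Note: peptides expressed intracellularly from a pBAD plasmid library in pooled LB shake-flask culture, induced with 0.3% L-arabinose, DNA abundance read by NGS, three biological replicates, DESeq2 with apeglm shrinkage.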

Sequence	shrunken log2 fold change
RRIRRRPPRLPRPRPRPYSMPRP	-1.39
RRIRRRPPRLPRPRPRPYVYPRP	-0.209
RRIRRRPPRLPRPRPRPYWQPRP	-0.0961
RRIRSRPPRLPRPRPRPAATPRP	0.67
RRIRSRPPRLPRPRPRPADGPRP	0.218
RRIRSRPPRLPRPRPRPAESPRP	-0.04
RRIRSRPPRLPRPRPRPAETPRP	0.114
RRIRSRPPRLPRPRPRPAGAPRP	0.36
RRIRSRPPRLPRPRPRPAGPPRP	0.493
RRIRSRPPRLPRPRPRPAGYPRP	0.0337
RRIRSRPPRLPRPRPRPAIDPRP	-0.0382
RRIRSRPPRLPRPRPRPAIGPRP	-0.0608
RRIRSRPPRLPRPRPRPAKCPRP	0.0862
RRIRSRPPRLPRPRPRPAKDPRP	0.135
RRIRSRPPRLPRPRPRPALMPRP	0.323
RRIRSRPPRLPRPRPRPAMNPRP	-0.66
RRIRSRPPRLPRPRPRPAMRPRP	0.588
RRIRSRPPRLPRPRPRPAMTPRP	0.459
RRIRSRPPRLPRPRPRPANCPRP	-0.411
RRIRSRPPRLPRPRPRPANEPRP	0.0433
RRIRSRPPRLPRPRPRPANIPRP	-0.484
RRIRSRPPRLPRPRPRPAPMPRP	0.492
RRIRSRPPRLPRPRPRPAPRPRP	0.845
RRIRSRPPRLPRPRPRPAQIPRP	-0.0853
RRIRSRPPRLPRPRPRPAQKPRP	0.33

Sequence	shrunken log2 fold change
RRIRSRPPRLPRPRPRPARPPRP	0.691
RRIRSRPPRLPRPRPRPARWPRP	0.224
RRIRSRPPRLPRPRPRPASQPRP	0.0365
RRIRSRPPRLPRPRPRPATLPRP	-0.0555
RRIRSRPPRLPRPRPRPATNPRP	0.0897
RRIRSRPPRLPRPRPRPAVIPRP	-0.593
RRIRSRPPRLPRPRPRPAVPPRP	0.168
RRIRSRPPRLPRPRPRPAWSPRP	0.58
RRIRSRPPRLPRPRPRPAYSPRP	-0.0975
RRIRSRPPRLPRPRPRPAYVPRP	-0.137
RRIRSRPPRLPRPRPRPAYYPRP	-0.495
RRIRSRPPRLPRPRPRPCAYPRP	-0.431
RRIRSRPPRLPRPRPRPCDFPRP	-0.108
RRIRSRPPRLPRPRPRPCDIPRP	-0.0321
RRIRSRPPRLPRPRPRPCDNPRP	-0.165
RRIRSRPPRLPRPRPRPCDPPRP	0.0442
RRIRSRPPRLPRPRPRPCDYPRP	-0.238
RRIRSRPPRLPRPRPRPCEEPRP	0.00181
RRIRSRPPRLPRPRPRPCEPPRP	-1.02
RRIRSRPPRLPRPRPRPCERPRP	-0.0685
RRIRSRPPRLPRPRPRPCGGPRP	0.012
RRIRSRPPRLPRPRPRPCHWPRP	-0.0782
RRIRSRPPRLPRPRPRPCLEPRP	-0.0107
RRIRSRPPRLPRPRPRPCLGPRP	-0.127
RRIRSRPPRLPRPRPRPCMLPRP	-0.472

Sequence	shrunken log2 fold change
RRIRSRPPRLPRPRPRPCNIPRP	-0.178
RRIRSRPPRLPRPRPRPCQAPRP	0.116
RRIRSRPPRLPRPRPRPCQPPRP	0.0956
RRIRSRPPRLPRPRPRPCRKPRP	-0.012
RRIRSRPPRLPRPRPRPCRMPRP	-0.102
RRIRSRPPRLPRPRPRPCRYPRP	-0.424
RRIRSRPPRLPRPRPRPCSAPRP	-0.0813
RRIRSRPPRLPRPRPRPCSEPRP	-0.228
RRIRSRPPRLPRPRPRPCYQPRP	0.0321
RRIRSRPPRLPRPRPRPDATPRP	0.816
RRIRSRPPRLPRPRPRPDCSPRP	0.0664
RRIRSRPPRLPRPRPRPDDCPRP	-0.0201
RRIRSRPPRLPRPRPRPDFMPRP	-0.159
RRIRSRPPRLPRPRPRPDGHPRP	-0.0734
RRIRSRPPRLPRPRPRPDGKPRP	0.00369
RRIRSRPPRLPRPRPRPDMDPRP	-0.201
RRIRSRPPRLPRPRPRPDMYPRP	0.00612
RRIRSRPPRLPRPRPRPDNDPRP	-0.0528
RRIRSRPPRLPRPRPRPDNLPRP	-0.0926
RRIRSRPPRLPRPRPRPDQRPRP	0.0901
RRIRSRPPRLPRPRPRPDRPPRP	-0.0605
RRIRSRPPRLPRPRPRPDSKPRP	1.02
RRIRSRPPRLPRPRPRPDSTPRP	-0.481
RRIRSRPPRLPRPRPRPDTNPRP	-0.111
RRIRSRPPRLPRPRPRPECEPRP	-0.0828

Sequence	shrunken log2 fold change
RRIRSRPPRLPRPRPRPECNPRP	0.218
RRIRSRPPRLPRPRPRPEDLPRP	-0.0115
RRIRSRPPRLPRPRPRPEDQPRP	0.106
RRIRSRPPRLPRPRPRPEEHPRP	-0.0107
RRIRSRPPRLPRPRPRPEESPRP	-0.048
RRIRSRPPRLPRPRPRPEFPPRP	0.123
RRIRSRPPRLPRPRPRPEGNPRP	-0.0126
RRIRSRPPRLPRPRPRPEHDPRP	-0.128
RRIRSRPPRLPRPRPRPEHNPRP	-0.0911
RRIRSRPPRLPRPRPRPEKFPRP	-0.146
RRIRSRPPRLPRPRPRPEKNPRP	0.312
RRIRSRPPRLPRPRPRPELRPRP	0.382
RRIRSRPPRLPRPRPRPENNPRP	-0.449
RRIRSRPPRLPRPRPRPEQHPRP	-0.101
RRIRSRPPRLPRPRPRPESMPRP	0.151
RRIRSRPPRLPRPRPRPETCPRP	0.152
RRIRSRPPRLPRPRPRPETNPRP	-0.0626
RRIRSRPPRLPRPRPRPEVDPRP	0.51
RRIRSRPPRLPRPRPRPEVHPRP	0.0346
RRIRSRPPRLPRPRPRPEWSPRP	0.233
RRIRSRPPRLPRPRPRPEYVPRP	0.0646
RRIRSRPPRLPRPRPRPFAKPRP	-0.136
RRIRSRPPRLPRPRPRPFAQPRP	0.185
RRIRSRPPRLPRPRPRPFCFPRP	-0.069
RRIRSRPPRLPRPRPRPFCVPRP	-0.128

Sequence	shrunken log2 fold change
RRIRSRPPRLPRPRPRPFCWPRP	0.651
RRIRSRPPRLPRPRPRPFDAPRP	-0.279
RRIRSRPPRLPRPRPRPFDNPRP	0.0211
RRIRSRPPRLPRPRPRPFFQPRP	-0.105
RRIRSRPPRLPRPRPRPFFSPRP	-0.13
RRIRSRPPRLPRPRPRPFGSPRP	-0.178
RRIRSRPPRLPRPRPRPFHMPRP	-0.365
RRIRSRPPRLPRPRPRPFICPRP	-0.163
RRIRSRPPRLPRPRPRPFKTPRP	-0.0323
RRIRSRPPRLPRPRPRPFLMPRP	3.07
RRIRSRPPRLPRPRPRPFMQPRP	-0.638
RRIRSRPPRLPRPRPRPFNAPRP	-0.459
RRIRSRPPRLPRPRPRPFNPPRP	-0.28
RRIRSRPPRLPRPRPRPFPLPRP	-0.886
RRIRSRPPRLPRPRPRPFQMPRP	0.00561
RRIRSRPPRLPRPRPRPFQVPRP	-0.0848
RRIRSRPPRLPRPRPRPFTPPRP	-0.0114
RRIRSRPPRLPRPRPRPFVWPRP	-0.0361
RRIRSRPPRLPRPRPRPGAAPRP	0.603
RRIRSRPPRLPRPRPRPGCNPRP	0.0419
RRIRSRPPRLPRPRPRPGCTPRP	0.22
RRIRSRPPRLPRPRPRPGDCPRP	0.0299
RRIRSRPPRLPRPRPRPGEIPRP	0.223
RRIRSRPPRLPRPRPRPGEYPRP	-0.275
RRIRSRPPRLPRPRPRPGGYPRP	2.83

Sequence	shrunken log2 fold change
RRIRSRPPRLPRPRPRPGITPRP	-0.151
RRIRSRPPRLPRPRPRPGKEPRP	-0.0291
RRIRSRPPRLPRPRPRPGLKPRP	0.14
RRIRSRPPRLPRPRPRPGNGPRP	-0.0508
RRIRSRPPRLPRPRPRPGNVPRP	-0.0126
RRIRSRPPRLPRPRPRPGPEPRP	0.221
RRIRSRPPRLPRPRPRPGQKPRP	0.0237
RRIRSRPPRLPRPRPRPGRAPRP	1.02
RRIRSRPPRLPRPRPRPGRIPRP	-0.0494
RRIRSRPPRLPRPRPRPGSKPRP	-0.0053
RRIRSRPPRLPRPRPRPGSTPRP	0.0972
RRIRSRPPRLPRPRPRPGSVPRP	-0.0129
RRIRSRPPRLPRPRPRPGVEPRP	0.463
RRIRSRPPRLPRPRPRPGVMPRP	0.161
RRIRSRPPRLPRPRPRPGWGPRP	0.291
RRIRSRPPRLPRPRPRPGYCPRP	-0.119
RRIRSRPPRLPRPRPRPGYLPRP	-0.388
RRIRSRPPRLPRPRPRPHAYPRP	0.0215
RRIRSRPPRLPRPRPRPHELPRP	-0.101
RRIRSRPPRLPRPRPRPHFLPRP	-0.318
RRIRSRPPRLPRPRPRPHHKPRP	-0.564
RRIRSRPPRLPRPRPRPHHLPRP	-0.903
RRIRSRPPRLPRPRPRPHHPPRP	-0.369
RRIRSRPPRLPRPRPRPHHYPRP	-0.998
RRIRSRPPRLPRPRPRPHLEPRP	-0.395
